The values that follow come from patent CN114317447A.

The target of experiment [1] is 磷酸二(2-乙基己基)酯蛋白偶联物 (di(2-ethylhexyl) phosphate coupled to bovine serum albumin) (bovine (牛)) (UniProt P02769). In words: indirect ELISA, D-BSA coated on plate, antibody titrated, OD450.
Experiment [2] has the same target. Nature of the experiment: indirect ELISA, D-BSA coated on plate, antibody titrated, OD450; unit from the x axis of Figure 1. (ELISA stands for enzyme-linked immunosorbent assay.)

Sequence of UniProt P02769 (P02769 25-607 limits assumed, form in doubt): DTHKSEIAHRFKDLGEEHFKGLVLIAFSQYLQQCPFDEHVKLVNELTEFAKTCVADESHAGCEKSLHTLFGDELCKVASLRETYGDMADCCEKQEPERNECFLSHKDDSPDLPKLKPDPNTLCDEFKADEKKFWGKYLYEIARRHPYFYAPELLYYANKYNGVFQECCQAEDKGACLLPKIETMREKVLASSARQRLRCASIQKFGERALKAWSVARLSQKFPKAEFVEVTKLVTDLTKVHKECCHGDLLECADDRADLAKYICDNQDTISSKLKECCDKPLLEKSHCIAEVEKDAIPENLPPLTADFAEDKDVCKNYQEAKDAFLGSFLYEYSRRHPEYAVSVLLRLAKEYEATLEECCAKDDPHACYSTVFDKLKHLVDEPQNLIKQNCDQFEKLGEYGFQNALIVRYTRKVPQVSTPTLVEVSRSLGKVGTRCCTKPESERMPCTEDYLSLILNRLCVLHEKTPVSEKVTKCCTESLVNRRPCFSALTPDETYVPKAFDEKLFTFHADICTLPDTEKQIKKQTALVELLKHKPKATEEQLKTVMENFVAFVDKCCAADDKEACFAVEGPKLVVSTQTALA

B1: 磷酸二(2-乙基己基)酯单克隆抗体 (monoclonal antibody against di(2-ethylhexyl) phosphate, secreted by hybridoma cell line 2D5, CCTCC NO: C2021136) (antibody, V domains shown)
VH: QVQLQQSGAELVRPGSSVKISCKASGYAFSSYWMNWVKQRPGQGLEWIGQIYPGDGDTNYNGKFKGKATLTADKSSSTAYMQLSSLTSEDSAVYFCARSDYPWFVYWGQGTLVTVSA
VL: QIVLTQSPAIMSASPGEKVTISCSASSSVSYMYWYQQKPGSSPKPWIYRTSNLASGVPARFSGSGSGTSYSLTISSMEAEDAATYYCQQYHSYPWTFGGGTKLEIK
In experiment [1], B1 had an A of the ELISA titer curve (lower asymptote, OD450) of 0.203 OD450 and a D of the ELISA titer curve (upper asymptote, OD450) of 2.19 OD450. In experiment [2], this molecule gave a C of the ELISA titer curve y=(A-D)/(1+(x/C)^B)+D (midpoint antibody concentration) of 62.4 ng/mL.
